Laboratory results: PMC7015683

Biological target: insulin-like growth factor 2 receptor (IGF2R), native full-length, from bovine liver (bovine) (UniProt P08169)
Experiment: pull-down

Sequence of UniProt P08169 (P08169 45-2499): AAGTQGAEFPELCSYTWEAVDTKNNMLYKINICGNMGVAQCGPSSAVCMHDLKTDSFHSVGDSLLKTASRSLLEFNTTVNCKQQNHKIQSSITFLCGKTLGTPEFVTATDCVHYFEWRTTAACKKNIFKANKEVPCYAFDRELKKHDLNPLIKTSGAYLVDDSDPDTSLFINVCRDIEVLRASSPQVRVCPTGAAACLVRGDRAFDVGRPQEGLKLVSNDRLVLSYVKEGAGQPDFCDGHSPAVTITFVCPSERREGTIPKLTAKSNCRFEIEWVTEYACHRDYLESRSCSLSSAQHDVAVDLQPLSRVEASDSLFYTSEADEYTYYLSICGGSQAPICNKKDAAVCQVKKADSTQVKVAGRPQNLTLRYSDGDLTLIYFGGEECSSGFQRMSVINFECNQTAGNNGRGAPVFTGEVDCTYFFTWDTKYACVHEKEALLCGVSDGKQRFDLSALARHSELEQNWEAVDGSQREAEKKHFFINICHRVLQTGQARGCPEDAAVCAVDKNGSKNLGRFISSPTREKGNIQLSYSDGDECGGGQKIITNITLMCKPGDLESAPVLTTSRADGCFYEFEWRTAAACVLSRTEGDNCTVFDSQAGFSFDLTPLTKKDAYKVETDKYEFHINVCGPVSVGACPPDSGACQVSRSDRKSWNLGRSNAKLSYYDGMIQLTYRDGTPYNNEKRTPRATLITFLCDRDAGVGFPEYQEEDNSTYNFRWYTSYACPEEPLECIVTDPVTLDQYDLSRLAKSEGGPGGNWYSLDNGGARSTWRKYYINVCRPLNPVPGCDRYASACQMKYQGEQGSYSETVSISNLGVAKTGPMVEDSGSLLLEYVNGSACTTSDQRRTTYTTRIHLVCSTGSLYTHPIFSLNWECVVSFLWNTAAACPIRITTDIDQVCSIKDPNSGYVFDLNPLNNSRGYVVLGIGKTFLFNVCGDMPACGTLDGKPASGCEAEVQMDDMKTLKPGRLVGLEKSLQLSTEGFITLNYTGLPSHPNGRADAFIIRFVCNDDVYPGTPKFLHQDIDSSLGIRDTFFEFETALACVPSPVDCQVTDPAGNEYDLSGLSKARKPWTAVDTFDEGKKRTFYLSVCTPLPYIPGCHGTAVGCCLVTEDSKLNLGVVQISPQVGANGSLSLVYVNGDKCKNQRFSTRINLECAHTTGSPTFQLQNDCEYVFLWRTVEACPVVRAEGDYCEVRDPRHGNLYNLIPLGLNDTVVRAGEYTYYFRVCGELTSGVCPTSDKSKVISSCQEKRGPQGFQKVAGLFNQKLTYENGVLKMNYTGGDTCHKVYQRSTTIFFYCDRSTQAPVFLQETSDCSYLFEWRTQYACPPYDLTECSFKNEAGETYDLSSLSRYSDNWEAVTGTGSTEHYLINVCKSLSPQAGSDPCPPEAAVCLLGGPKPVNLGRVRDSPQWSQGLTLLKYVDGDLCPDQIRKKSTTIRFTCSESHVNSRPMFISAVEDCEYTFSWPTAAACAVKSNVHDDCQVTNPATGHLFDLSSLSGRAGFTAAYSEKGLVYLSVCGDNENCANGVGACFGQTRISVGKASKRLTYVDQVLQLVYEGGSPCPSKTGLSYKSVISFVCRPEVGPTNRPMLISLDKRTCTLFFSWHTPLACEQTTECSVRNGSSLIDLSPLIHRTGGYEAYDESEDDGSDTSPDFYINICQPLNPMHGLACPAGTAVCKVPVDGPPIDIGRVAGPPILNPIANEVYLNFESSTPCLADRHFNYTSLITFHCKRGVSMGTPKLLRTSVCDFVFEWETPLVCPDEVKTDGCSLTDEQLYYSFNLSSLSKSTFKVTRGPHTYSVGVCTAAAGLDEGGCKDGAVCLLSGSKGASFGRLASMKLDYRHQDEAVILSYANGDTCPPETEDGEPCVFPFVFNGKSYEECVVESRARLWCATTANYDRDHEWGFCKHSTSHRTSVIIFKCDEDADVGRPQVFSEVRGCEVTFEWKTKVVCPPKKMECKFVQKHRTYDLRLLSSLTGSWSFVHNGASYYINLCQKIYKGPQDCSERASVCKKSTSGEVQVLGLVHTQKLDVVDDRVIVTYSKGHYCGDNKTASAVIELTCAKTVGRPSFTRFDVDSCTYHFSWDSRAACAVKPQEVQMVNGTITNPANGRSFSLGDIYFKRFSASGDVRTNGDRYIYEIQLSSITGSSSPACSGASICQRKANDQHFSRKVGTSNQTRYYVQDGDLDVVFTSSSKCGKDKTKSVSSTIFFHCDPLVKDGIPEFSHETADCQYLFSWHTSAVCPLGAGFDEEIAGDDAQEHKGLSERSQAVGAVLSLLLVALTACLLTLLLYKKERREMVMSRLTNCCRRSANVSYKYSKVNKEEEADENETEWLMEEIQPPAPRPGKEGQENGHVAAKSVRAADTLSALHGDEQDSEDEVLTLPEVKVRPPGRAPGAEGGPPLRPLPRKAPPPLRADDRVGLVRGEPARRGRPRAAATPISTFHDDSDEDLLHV

Row | percent reduction of binding against WT IGF2 | Substance
1 | 20 to 30% | Flag-IGF2 F28A V43D double mutant (ligand)
2 | 20 to 30% | Flag-IGF2 F48D mutant (ligand)
3 | > 60% | Flag-IGF2 L53D mutant (ligand)
